We go through one molecule from US7670806B2, “ADP-ribosyl acceptor hydrolase 3 (ARH3) polypeptides and methods of use” (The United States of America as represented by the …, priority 2005, dated 2010).

“Also recorded” adds a separate entry of the source.

This assay in a line: Poly(ADP-ribose) hydrolysis (autoradiography, high resolution PAGE, HPLC). Type of assay: biochemical. To be noted: [32P]poly(ADP-ribose) or poly(ADP-ribose)PARP; 37° C.; autoradiography / PAGE / HPLC. How it is done:
Poly(ADP-ribose) hydrolysis by autoradiography. [^32P]poly(ADP-ribose)PARP (500 ng of PARP with poly(ADP-ribose) was incubated (37° C., 2 h) with 2 μM ARH in 25 μl of 50 mM potassium phosphate buffer, pH 7.5, with or without 10 mM MgCl2 and/or 5 mM DTT. Reactions were stopped by adding 6 μl of 5× Laemmli buffer. Samples (20 μl) of proteins were separated by SDS-PAGE in 4-20% gels and transferred to nitrocellulose membranes that were exposed to X-ray film (Kodak) for 10 h.
Hydrolysis of poly(ADP-ribose) by PARG and ARH3. Purified [^32P] poly(ADP-ribose) (5.5×10^5 cpm, ˜300 nM ADP-ribose) was incubated for the indicated time at 37° C. in 25 μl of 50 mM potassium phosphate, pH 7.5, containing 10 mM MgCl2 and 5 mM DTT with enzyme or other additions as indicated and terminated by addition of 25 μl of 2× electrophoresis buffer (Invitrogen). [^32P]AMP was generated by incubation (37° C., 3 h) of 10 μM [^32P] NAD (10 μCi/reaction) with pyrophosphatase (40 units/mg from SIGMA, 1 mg/ml) in 25 μl of 50 mM KPO4, pH 7.5, and 10 mM MgCl2. [^32P] ADP-ribose was generated in a 25 μl mixture containing 50 mM KPO4, pH 7.5, 25 μg of activated CTA, 10 μM [^32P] NAD (10 μCi/reaction), 10 mM MgCl2, and 5 mM DTT, which was incubated at 30° C. overnight. [^32P] phosphoribosyl-AMP was generated by incubation (37° C., 3 h) of [^32P]poly(ADP-ribose) (5.5×10^5 cpm, ˜300 nM ADP-ribose) with Crotalus adamanteus phosphodiesterase (10 mU/reaction), 25 μl of 50 mM KPO4, pH 7.5, 10 mM MgCl2, and 5 mM DTT. Identities of AMP and ADP-ribose standards were confirmed by HPLC on C18 and SAX columns respectively.
High resolution Polyacrylamide Gel Electrophoresis (PAGE). Polyacrylamide (20%) gels (20×20×0.15 cm) containing polyacrylamide and bis(acrylamide), in a ratio of 19:1, 100 mM Tris-borate, pH 8.3, 2 mM EDTA, 4.4 mM ammonium persulfate, and 3.4 mM TEMED with electrophoresis carried out for 2 h at 400V with 50 mM Tris-borate, pH 8.3, 1 mM EDTA, before application of samples (15 μl) were used for analysis of poly(ADP-ribose) degradation. Subsequent electrophoresis at 400V was stopped when bromophenol blue (BPB) had moved 9 cm from the origin. Gels were exposed to X-ray films (Kodak).
HPLC analysis. HPLC, Hewlett-Packard series 1100 equipped with a diode-array spectrophotometric detector set at 254 nm, was used for separation of reaction products. For anion exchange perfusion chromatography, Zorbax SAX column (4.6×250 mm; DuPont, Wilmington Del.) was washed with 20 mM potassium phosphate, pH 4.5, for 30 min, followed by a linear gradient of 0-1M NaCl in the same buffer for 10 min (30-40 min), then same buffer with 1M NaCl for 10 min (40-50 min) at a flow rate of 1 ml/min. Nicotinamide was eluted at 3 min, NAD at 10 min, and ADP-ribose at 40 min. For reverse phase, Discovery C18 column (4.6×250 mm; SUPELCO, Bellefonte Pa.) was used. Samples were separated isocratically with 100 mM potassium phosphate, pH 6.0 containing 7% methanol at a same flow rate of 1 ml/min. ADP-ribose was eluted at 6 min, NAD at 8 min, nicotinamide 9 min.
Poly(ADP-ribose)PARP was used as substrate to assay potential poly(ADP-ribose) hydrolase activities of recombinant ARH1, 2 or 3. Products were identified by autoradiography and HPLC. Fractions (1 ml) were collected for liquid scintillation counting to quantify [^14C]ADP-ribose, which was eluted in fractions from 34 min to 43 min. Because ARH1 activity may require both DTT and Mg^2+, depending on species (Takada et al. (1993) J. Biol. Chem. 268:17837-17843; Moss et al. (1992) J. Biol. Chem. 267:10481-10488), these reactions were performed with or without 10 mM MgCl2, and/or 5 mM DTT. […] Degradation of [^32P]poly(ADP-ribose) by ARH3 was enhanced by 10 mM MgCl2 (FIG. 4A). Data were similar with mouse ARH3.
Samples of [^14C] ADP-ribosylated PARP (250 ng, 15,000 cpm, ˜850 nM ADP-ribose) were incubated at 37° C. (total volume, 100 μl) with human ARH3 as indicated. […]

B1: ARH3 (D77N/D78N): human ARH3 mutant with dual amino acid replacement D77N/D78N (protein)
chain: MAAAAMAAAAGGGAGAARSLSRFRGCLAGALLGDCVGSFYEAHDTVDLTSVLRHVQSLEPDPGTPGSERTEALYYTNNTAMARALVQSLLAKEAFDEVDMAHRFAQEYKKDPDRGYGAGVVTVFKKLLNPKCRDVFEPARAQFNGKGSYGNGGAMRVAGISLAYSSVQDVQKFARLSAQLTHASSLGYNGAILQALAVHLALQGESSSEHFLKQLLGHMEDLEGDAQSVLDARELGMEERPYSSRLKKIGELLDQASVTREEVVSELGNGIAAFESVPTAIYCFLRCMEPDPEIPSAFNSLQRTLIYSISLGGDTDTIATMAGAIAGAYYGMDQVPESWQQSCEGYEETDILAQSLHRVFQKS
Regarding B1, the “Poly(ADP-ribose) hydrolysis (in words)” value was “inactive; also recorded: No activity”.
